This test concerns the target PL6S* (PvuII-L6-I-SceI* fusion enzyme: wt PvuII fused via linker L6 to I-SceIΔC9,D44N,D145A) (UniProt P03882). Description: AUC.

The text below walks through data of PMC3258161.

Turning to “PL6S* (PvuII-L6-I-SceI* fusion enzyme: wt PvuII fused via linker L6 to I-SceIΔC9,D44N,D145A) (from UniProt P03882 1-226)”, the stoichiometry N (in general, the number of molecules, sites or subunits per partner or assembly) came to 2.
